US20090197330A1 (BIOMEDICS, published 2009)

Experiments:
[1] = target: T1, human CD20 antigen (human, UniProt P11836 1-297); experiment: SB cell-ELISA, negative control, concentration not clear
T1 construct: whole, on cells; also called CD20/CHO cells; CD20 on Raji cells
T1 sequence (looked up): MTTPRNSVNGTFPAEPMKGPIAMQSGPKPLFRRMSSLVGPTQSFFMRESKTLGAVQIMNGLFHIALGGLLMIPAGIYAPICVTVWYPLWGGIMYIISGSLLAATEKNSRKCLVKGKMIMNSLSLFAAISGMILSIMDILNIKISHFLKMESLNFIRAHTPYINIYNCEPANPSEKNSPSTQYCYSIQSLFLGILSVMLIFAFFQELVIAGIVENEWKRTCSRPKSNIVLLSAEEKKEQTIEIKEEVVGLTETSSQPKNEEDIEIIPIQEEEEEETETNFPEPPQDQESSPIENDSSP

[2] = target: T1, human CD20 antigen; experiment: CD20/CHO cell-ELISA, negative control, concentration not clear
[3] = target: T1, human CD20 antigen; experiment: Raji cell-ELISA, negative control, concentration not clear
[4] = target: T1, human CD20 antigen; experiment: SB cell-ELISA, antibody at 10 ng/ml
From the text: (§1) Several murine anti-CD20 monoclonal antibodies and 2B8 were reacted by using 96-well plates to which the SB cells, Raji cells, CD20/CHO cells and CD20 CHO parent cell line were adhered.

[5] = target: T1, human CD20 antigen; experiment: Raji cell-ELISA, antibody at 100 ng/ml
From the text: as §1

[6] = target: T1, human CD20 antigen; experiment: CD20/CHO cell-ELISA, antibody at 100 ng/ml
[7] = target: T1, human CD20 antigen; experiment: Raji cell-ELISA, antibody at 10 ng/ml
From the text: as §1

[8] = target: T1, human CD20 antigen; experiment: Raji cell-ELISA, antibody at 1000 ng/ml
From the text: as §1

[9] = target: T1, human CD20 antigen; experiment: Raji cell-ELISA, antibody at 32 ng/ml
From the text: as §1

[10] = target: T1, human CD20 antigen; experiment: SB cell-ELISA, antibody at 3 ng/ml
[11] = target: T1, human CD20 antigen; experiment: SB cell-ELISA, antibody at 32 ng/ml
From the text: as §1

[12] = target: T1, human CD20 antigen; experiment: SB cell-ELISA, antibody at 100 ng/ml
From the text: as §1

[13] = target: T1, human CD20 antigen; experiment: Raji cell-ELISA, antibody at 3 ng/ml
[14] = target: T1, human CD20 antigen; experiment: CD20/CHO cell-ELISA, antibody at 1000 ng/ml
From the text: as §1

[15] = target: T1, human CD20 antigen; experiment: CD20/CHO cell-ELISA, antibody at 3 ng/ml
[16] = target: T1, human CD20 antigen; experiment: SB cell-ELISA, antibody at 320 ng/ml
From the text: as §1

[17] = target: T1, human CD20 antigen; experiment: CD20/CHO cell-ELISA, antibody at 320 ng/ml
From the text: as §1

[18] = target: T1, human CD20 antigen; experiment: CD20/CHO cell-ELISA, antibody at 10 ng/ml
[19] = target: T1, human CD20 antigen; experiment: SB cell-ELISA, antibody at 1000 ng/ml
From the text: as §1

[20] = target: T1, human CD20 antigen; experiment: CD20/CHO cell-ELISA, antibody at 32 ng/ml
[21] = target: T1, human CD20 antigen; experiment: Raji cell-ELISA, antibody at 320 ng/ml
From the text: as §1

[22] = target: T1, human CD20 antigen; experiment: CD20/CHO cell-ELISA, antibody at 100 ng/ml; remark: listed apart in the source
From the text: as §1

[23] = target: T1, human CD20 antigen; experiment: CD20/CHO cell-ELISA, antibody at 3 ng/ml; remark: listed apart in the source
From the text: as §1

[24] = target: T1, human CD20 antigen; experiment: CD20/CHO cell-ELISA, antibody at 10 ng/ml; remark: listed apart in the source
From the text: as §1

[25] = target: T1, human CD20 antigen; experiment: CD20/CHO cell-ELISA, antibody at 32 ng/ml; remark: listed apart in the source
From the text: as §1

## NC
[1]
  A492: 0.028 A492
[2]
  A492: 0.07 A492
[3]
  A492: 0.035 A492

## 2B8 (antibody)
[4]
  A492: 0.037 A492
[5]
  A492: 0.055 A492
[6]
  A492: 1.09 A492
[7]
  A492: 0.034 A492
[8]
  A492: 0.329 A492
[9]
  A492: 0.038 A492
[10]
  A492: 0.053 A492
[11]
  A492: 0.038 A492
[12]
  A492: 0.045 A492
[13]
  A492: 0.046 A492
[14]
  A492: 2.29 A492
[15]
  A492: 0.089 A492
[16]
  A492: 0.091 A492
[17]
  A492: 1.66 A492
[18]
  A492: 0.174 A492
[19]
  A492: 0.337 A492
[20]
  A492: 0.561 A492
[21]
  A492: 0.121 A492

B1: murine anti-CD20 monoclonal antibody 1K1422 (antibody, V domains shown)
VH: QVQLQQPGAELVKPGASVKMSCRASGYTFTNYNMHWIKQTPGQGLEWIGAIYPGSGDTSYNRKFKGKATLTADTSSSTAYMQFSSLTSADSAVYYCARFTYYYGGTYGAMDYWGQGTSVTVSL
VL: QIVLTQSPPIMSASLGEEITLTCSASSRVSYMLWYQQKSGTSPKLLIYSTSNLASGVPSRFSGSGSGTFYSLTISSVEAEDAADYYCHQWTSNPCTFGGGTKLEIK
notes: Mouse monoclonal antibody from a hybridoma
[4]
  A492: 0.036 A492
[5]
  A492: 0.121 A492
[7]
  A492: 0.046 A492
[22]
  A492: 0.842 A492
[23]
  A492: 0.068 A492
[8]
  A492: 0.748 A492
[9]
  A492: 0.057 A492
[11]
  A492: 0.039 A492
[12]
  A492: 0.071 A492
[24]
  A492: 0.105 A492
[25]
  A492: 0.238 A492
[14]
  A492: 2.23 A492
[16]
  A492: 0.147 A492
[17]
  A492: 1.33 A492
[19]
  A492: 0.403 A492
[21]
  A492: 0.277 A492
